Measured values from PMC7196836, “Molecular analysis of the ribosome recycling factor ABCE1 bound to the 30S post‐splitting complex” (The EMBO Journal, 2020).

Molecular target: Thermococcus celer 30S small ribosomal subunit (T. celer (endogenous in T. celer cells)) (UniProt P29161)
Test: cryo-EM structure; post-splitting complex from 1 nmol T. celer 70S split by ABCE1^IIEA (8 uM), aPelota and aRF1 (5 uM each), 0.5 mM AMP-PNP, 50 mM HEPES-KOH pH 7.5, 30 mM KCl, 10 mM MgCl2, 2 mM DTT, 65 °C 15 min; cross-linked with 1% formaldehyde; 30S fractions of a 10-30% sucrose gradient

- percent of 30S particles associated with ABCE1 (3D classification): 97%
Substance: ABCE1^IIEA (E238A/E485A), hydrolysis-deficient ABCE1 from Saccharolobus solfataricus (from UniProt Q980K5 1-594) (enzyme)
